Results on four sequences are retold here after paper PMC5318444.

The test system of series [1] is RpoN (sigma54) (Escherichia coli (CFT073?)), ORF:8ae15e91. Kind of series: EMSA. Particulars: 10 mM Tris pH 7.5, 1 mM EDTA, 1 mM DTT, 50 mM KCl, 50 mM MgCl2, 1 ug/ml BSA; 10 nM DNA, protein 0-240 nM; 30 min room temperature (ArcA, RpoN) ….
For series [2], the target named is T1, ArcA (Escherichia coli (uropathogenic CFT073?)) (UniProt P0A9Q2).
T1 sequence: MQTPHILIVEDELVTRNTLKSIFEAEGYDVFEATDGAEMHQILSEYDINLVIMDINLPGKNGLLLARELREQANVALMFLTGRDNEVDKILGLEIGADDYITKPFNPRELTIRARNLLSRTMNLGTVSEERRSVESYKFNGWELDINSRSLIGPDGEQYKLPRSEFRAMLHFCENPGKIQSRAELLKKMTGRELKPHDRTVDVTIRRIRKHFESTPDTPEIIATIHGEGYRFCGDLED
Description: EMSA. Particulars: 10 mM Tris pH 7.5, 1 mM EDTA, 1 mM DTT, 50 mM KCl, 50 mM MgCl2, 1 ug/ml BSA; 10 nM DNA, protein 0-240 nM; 30 min room temperature (ArcA, RpoN) …. In general terms: A gel shift assay detects complexes by their altered migration in electrophoresis.

On to “ATGTTAAGCATGATAACGCCTTTTAGGGGCAATTTAAAAGTTGGCACAGATTTCGCTTTATCTTTTTTACGGCGACACGGCCCATTTAATTGCAGATTTCGTTACCACGACGACAATGACCAATCCAGGAGAGTTAAAGTATGTCCGCTGAACACGTACTGACGATGCTGAACGAGCACGAAGTGAAGTTTGTTG (double strand) [glnA promoter probe]”, for which, in series [1], the binding result is listed as “binds”. As to “TGCGCAATTGTACTTATTGCATTTTTCTCTTCGAGGAATTACCCAGTTTCATCATCCCATTTTATTTTGCGAGCGAGCGCACACTTGTGAATTATCTCAATAGCAGTGTGAAATAACATAATTGAGCAACTGAAAGGGAGTGCCCAATATTACGACATCATCCATCACCCGCGGCATTACCTGATTATGGAGTTCAATATGCAAGCCT (double strand) [xylA promoter probe]”, in series [1], the binding result is “no binding”.

Regarding “ATCTGTGTGGTAAGAGAATCACCTTTTATTTACTGTGCGGAAAACCGCGCACAAAATAAAAAGAATAAATAATAAAATCATTAAATAACAAAGCGTTATTAAAAAATTAAAGATGGCATAGCTCCTGCAATAGCCAGGCAGGTTTTTTATTTTTCACAATGAGGTGAATATGTCATCAATATCCCATGGCGCACCACAAAAGCGTCGAATTATCCCTAATCCCGGCCTGTGGTT (double strand) [c5038 promoter probe]”, the values for the binding result in series [2] and in series [1] were “no binding” and “binds”, respectively. On to “GGCGCGTCTTATACTCCCACATAAGCCAGATTCAACAGCGAATACGTCTTCCCCAAATTGCCCACTTCCATACTTCCTCCTTACCAGAAATCTATCCTTAAGCTCCTTAATAACCATTTTCCTGCTAACTAAATTCATGGTTAAGGTTGCATAATGATATGCAACAAATGTATAACATTTTTCTTACCAAAAAATAAACAAAAGCGACCGACAAAAGCATTGGATTACGGCAGGAG (double strand) [kgtP promoter probe]”, for which, in series [2], the binding entry was “binds”.
